Two molecules from paper PMC12075709, “Acute regulation of murine adipose tissue lipolysis and insulin resistance by the TGFβ superfamily protein GDF3” (Nature Communications, 2025) can be followed below.

For orientation: Kd means the equilibrium constant for the complex coming apart. As a reminder, the koff is the first-order rate constant of dissociation. What is called kon is the second-order rate constant of association.

Test [1] addresses T1, Fc-chimera of the human type II BMP receptor (rhBMPR2-Fc) (human, UniProt Q13873 27-150).
T1 construct: type II BMP receptor BMPR2, human, part fused to Fc; Probably the extracellular domain fused to human IgG1 Fc (surmised); also called rhBMPRII-Fc; BMPRII
T1 sequence (looked up): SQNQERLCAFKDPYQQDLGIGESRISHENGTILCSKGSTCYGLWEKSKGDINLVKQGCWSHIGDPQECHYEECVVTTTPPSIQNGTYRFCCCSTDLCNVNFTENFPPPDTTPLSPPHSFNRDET
As to the kind of experiment: SPR; Biacore T200; receptor-Fc captured on a Protein A sensor chip (~70 RU); rhGDF3 flowed over, two-fold dilutions 12.5 nM-0.391 nM; 20 mM HEPES pH 7.4, 350 mM NaCl, 3.4 mM EDTA, 0.05% P-20, 0.5 mg/ml BSA, 25 °C; 1:1 fit model with mass transport limitations. The settings on record: both partners purified. For orientation: SPR reads the build-up and loss of mass on a sensor chip optically.

In test [2] the target is T2, chimeric recombinant human ACVR2A-Fc (human, UniProt P27037 20-135).
T2 construct: activin receptor type 2A (ACVR2A), human, part fused to Fc; Probably the extracellular domain fused to Fc (surmised); also called rhACVR2A-Fc; rhACVR2A
T2 sequence (P27037 20-135, change not shown): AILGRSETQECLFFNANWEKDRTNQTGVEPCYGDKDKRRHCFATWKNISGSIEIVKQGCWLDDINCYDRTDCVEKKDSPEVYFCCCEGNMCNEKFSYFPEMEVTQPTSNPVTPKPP
Described as above. The conditions noted are these: both partners purified.

The target in test [3] is T3, chimeric recombinant human ACVR2B-Fc (human, UniProt Q13705 19-137).
T3 construct: activin receptor type 2B (ACVR2B), human, part fused to Fc; Probably the extracellular domain fused to Fc (surmised); also called rhACVR2B-Fc; rhACVR2B
T3 sequence (looked up): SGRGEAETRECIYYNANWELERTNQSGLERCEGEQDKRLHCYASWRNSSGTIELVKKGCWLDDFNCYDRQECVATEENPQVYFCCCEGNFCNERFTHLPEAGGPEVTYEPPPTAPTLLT
The description is as above. The settings on record: both partners purified.

Test [4] addresses T4, SB-431542-resistant rat ALK5 S278T (Alk5-ST) (rat, UniProt P80204 30-501, S278T).
T4 sequence (looked up): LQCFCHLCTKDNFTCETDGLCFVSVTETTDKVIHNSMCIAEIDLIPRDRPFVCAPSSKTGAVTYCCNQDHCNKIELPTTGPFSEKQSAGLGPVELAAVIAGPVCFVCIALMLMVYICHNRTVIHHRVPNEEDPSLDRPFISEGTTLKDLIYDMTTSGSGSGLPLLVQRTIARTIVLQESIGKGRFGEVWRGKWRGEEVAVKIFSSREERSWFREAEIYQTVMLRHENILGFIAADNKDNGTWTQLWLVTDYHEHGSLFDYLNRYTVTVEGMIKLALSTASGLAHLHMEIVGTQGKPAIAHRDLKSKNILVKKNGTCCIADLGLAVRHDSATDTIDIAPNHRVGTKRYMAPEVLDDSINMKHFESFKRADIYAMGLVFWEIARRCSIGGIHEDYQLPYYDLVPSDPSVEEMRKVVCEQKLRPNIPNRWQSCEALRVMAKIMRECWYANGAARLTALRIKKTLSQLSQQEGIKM
In words: cell-based or functional assay.

In test [5] the target is T1, Fc-chimera of the human type II BMP …. In words: ITC; Nano ITC Standard Volume; 250 ng/mL of rhBMPR2-Fc, rhBMP2, rmBMP4 or rhBMP9 titrated into 250 ng/mL of rmGDF3; 10 injections of 8 µL at 350 s intervals, 300 rpm. The conditions noted are these: both partners purified. Background: In ITC the heat of successive injections is recorded.
Test [6] shares this target. As to the kind of experiment: BLI; Gator Plus; capturing receptor (rhBMPR2-Fc) at 10 µg/mL on anti-human IgG Fc probes; GDF3 in solution (rhGDF3 50 nM; rmGDF3 25-100 nM); PBS, 1 mg/mL BSA, 0.1% Tween20, pH 7.4, 25 °C. The conditions noted are these: both partners purified. A general note: Biolayer interferometry detects binding as a change in optical thickness at a sensor tip.

B1: recombinant human GDF3 (Growth Differentiation Factor 3) (ligand, UniProt Q9NR23 251-364, looked up)
chain: AAIPVPKLSCKNLCHRHQLFINFRDLGWHKWIIAPKGFMANYCHGECPFSLTISLNSSNYAFMQALMHAVDPEIPQAVCIPTKLSPISMLYQDNNDNVILRHYEDMVVDECGCG
notes: Growth Differentiation Factor 3, human, recombinant; also called rhGDF3; human rGDF3
On to B1, for which, in test [1], the Kd is 0.601 nM, the koff came to 0.00149 s⁻¹ and the kon amounted to 2.19e+06 M⁻¹ s⁻¹. Moreover, in test [2], the equilibrium dissociation constant (Kd) stood at 1.26 nM, the koff stood at 0.000405 s⁻¹ and the kon turned out to be 1.21e+06 M⁻¹ s⁻¹. In addition, in test [3], the Kd was 0.332 nM, the koff is 0.00038 s⁻¹ and the kon stood at 2.12e+06 M⁻¹ s⁻¹.

B2: recombinant mouse GDF3 (Growth Differentiation Factor 3) (ligand, UniProt Q07104 253-366, looked up)
chain: AAISVPKGFCRNFCHRHQLFINFQDLGWHKWVIAPKGFMANYCHGECPFSMTTYLNSSNYAFMQALMHMADPKVPKAVCVPTKLSPISMLYQDSDKNVILRHYEDMVVDECGCG
notes: Growth Differentiation Factor 3, mouse, recombinant; also called rmGDF3; mouse rGDF3; source: CHO cell-derived
For B2, in test [4], the “SBE-luciferase (CAGA12) reporter activity in HEK-293 cells expressing Alk5-ST, rmGDF3 0, 250, 500 or 1000 ng/mL with SB-431542” value came out at 70 fold. The molecule also returned a Kd in test [5] of 811 nM. Also, in test [6], the Kd was found to be 13.1 nM, the koff worked out at 0.00483 s⁻¹ and the on-rate (kon) stood at 370000 M⁻¹ s⁻¹.
